For this data set the following is noted: Escherichia coli (strain K12), Thermal, CD, NaCl 0.1 M, reversible: yes, whole UniProt chain shown.

The term Tm denotes the temperature at the midpoint of the melting transition.

B1: Ribonuclease HI wild type, P0A7Y4 (protein)
chain: MLKQVEIFTDGSCLGNPGPGGYGAILRYRGREKTFSAGYTRTTNNRMELMAAIVALEALKEHCEVILSTDSQYVRQGITQWIHNWKKRGWKTADKKPVKNVDLWQRLDAALGQHQIKWEWVKGHAGHPENERCDELARAAAMNPTLEDTGYQVEV
For B1, the Tm is 50 °C (pH 3, glycine-HCl 10 mM) and 53.1 °C (pH 5.5, Sodium acetate 20 mM). The “unfolding enthalpy (van 't Hoff)” value by setting is: (pH 3, glycine-HCl 10 mM) 107 kcal/mol; (pH 5.5, Sodium acetate 20 mM) 83.3 kcal/mol.

The values above are taken from FireProtDB (doi:10.1111/j.1432-1033.1994.tb18664.x).
